Reference: the supplement of paper PMC7125110
± gives the standard error. For some assays here: Variants at the floor of the assay were thinned out.

B1: glmS ribozyme (parent)
chain: AUAAAAGCGCCAGAACUACAGAAAUGUAGUUGACGAGGAGGAGGUUUAUCGAAUUUUCGGCGGAUGCCUCCAAA

Tests used:
Conditions in all cases: with glucosamine-6-phosphate
glucosamine-6-phosphate [1] = variants of: B1; assay: kcat; higher = faster cleavage; RNA array
Summary of the method: (§1)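 kcat and KM were obtained from weighted Michaelis–Menten fits across concentrations of kobs values. Those came from one- or two-exponential decay fits to per-tile medians normalised to baseline and to non-cleaving reference variants. The variants were barcoded ribozymes transcribed in situ by E. coli RNA polymerase on sequenced MiSeq chips and tracked through a hybridised Cy3 probe at 37 °C, with 40 μM to 10 mM glucosamine-6-phosphate in HEPES/KCl/Mg(OAc)2 buffer flowed in.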

glucosamine-6-phosphate [2] = variants of: B1; assay: KM; higher = weaker cofactor use; RNA array
Summary of the method: as §1

glucosamine-6-phosphate [3] = variants of: B1; assay: self-cleavage kobs at 40 uM GlcN6P; higher = faster cleavage; RNA array
Summary of the method: as §1

glucosamine-6-phosphate [4] = variants of: B1; assay: self-cleavage kobs at 160 uM GlcN6P; higher = faster cleavage; RNA array
Summary of the method: as §1

glucosamine-6-phosphate [5] = variants of: B1; assay: self-cleavage kobs at 640 uM GlcN6P; higher = faster cleavage; RNA array
Summary of the method: as §1

glucosamine-6-phosphate [6] = variants of: B1; assay: self-cleavage kobs at 2500 uM GlcN6P; higher = faster cleavage; RNA array
Summary of the method: as §1

glucosamine-6-phosphate [7] = variants of: B1; assay: self-cleavage kobs at 10000 uM GlcN6P; higher = faster cleavage; RNA array
Summary of the method: as §1

Variant | kcat (glucosamine-6-phosphate [1]) [s⁻¹] | KM (glucosamine-6-phosphate [2]) [µM] | self-cleavage kobs at 40 uM GlcN6P (glucosamine-6-phosphate [3]) [s⁻¹] | self-cleavage kobs at 160 uM GlcN6P (glucosamine-6-phosphate [4]) [s⁻¹] | self-cleavage kobs at 640 uM GlcN6P (glucosamine-6-phosphate [5]) [s⁻¹] | self-cleavage kobs at 2500 uM GlcN6P (glucosamine-6-phosphate [6]) [s⁻¹] | self-cleavage kobs at 10000 uM GlcN6P (glucosamine-6-phosphate [7]) [s⁻¹]
A12U G40U | 0.0088 ± 0.0017 | 1410 ± 390 | 0.000308 ± 2.8e-05 | 0.000749 ± 8.6e-05 | 0.00235 ± 0.00038 | 0.00609 ± 0.00085 | 0.00785 ± 0.00081
A12U G66C | 0.00201 ± 0.00014 | 1270 ± 160 | 6.36e-05 ± 1.1e-05 | – | 0.00058 ± 0.00016 | 0.00145 ± 0.00028 | 0.00177 ± 0.00022
A12C A39U | 0.0119 ± 0.0024 | 2230 ± 600 | 0.000239 ± 1.9e-05 | 0.000824 ± 9.8e-05 | 0.00219 ± 0.00025 | 0.00569 ± 0.00066 | 0.0112 ± 0.0011
C11U U65G C68U | 6.35e-05 ± 2.3e-05 | – | – | – | – | 0.000106 ± 3.6e-05 | 5.53e-05 ± 1.2e-05
A12C U45A | 0.0415 ± 0.0022 | 1690 ± 110 | 0.000958 ± 0.00019 | 0.00352 ± 0.00099 | 0.0118 ± 0.003 | 0.0233 ± 0.0073 | 0.037 ± 0.013
C11U C71G | 0.000109 ± 9.1e-06 | 408 ± 150 | – | – | 7.07e-05 ± 1.2e-05 | 8.38e-05 ± 1.2e-05 | 0.000111 ± 1.2e-05
A12U G13C | < 1e-05 | – | < 1e-05 | < 1e-05 | < 1e-05 | – | –
A12C U56G | 0.0146 ± 0.003 | 3360 ± 910 | 0.000162 ± 2.5e-05 | 0.000652 ± 0.00018 | 0.00336 ± 0.00068 | 0.0054 ± 0.0014 | 0.0111 ± 0.0018
A12G U55G | 0.00137 ± 0.00037 | 6630 ± 3200 | – | – | 0.000113 ± 1.7e-05 | 0.000784 ± 0.00017 | 0.000815 ± 5.8e-05
A12G A52G | 3.09e-05 ± 1e-05 | – | – | – | – | 5.02e-05 ± 1.5e-05 | 2.49e-05 ± 8.8e-06
A12G C58A | 0.000476 ± 0.0001 | 1510 ± 610 | – | 4.69e-05 ± 1.3e-05 | 0.000154 ± 1.7e-05 | 0.000245 ± 3.3e-05 | 0.000523 ± 7.4e-05
A12G C58G | 0.000117 ± 1.9e-05 | – | – | – | – | 7.99e-05 ± 1.2e-05 | 9.48e-05 ± 9.8e-06
A12U A15C | 0.00683 ± 0.003 | – | 0.000955 ± 0.00021 | – | 0.0109 ± 0.0048 | 0.00385 ± 0.0017 | 0.0117 ± 0.0029
C11U G59U | 0.000274 ± 3.6e-06 | 1920 ± 51 | – | – | 6.88e-05 ± 6.5e-06 | 0.000155 ± 1.6e-05 | 0.00023 ± 1.9e-05
A12G A15G | 0.000505 ± 0.00012 | 4550 ± 1800 | – | 2.24e-05 ± 1e-05 | 7.71e-05 ± 9.2e-06 | 0.000155 ± 1.5e-05 | 0.000371 ± 3.2e-05
C11U G40C C71U | 0.000141 ± 1.8e-06 | 1450 ± 65 | – | – | 4.4e-05 ± 1.6e-05 | 8.73e-05 ± 2.5e-05 | 0.000124 ± 1.7e-05
A12U A52C C67A | 2.65e-05 ± 5e-06 | – | – | – | – | – | –
A12C G59A | < 1e-05 | – | < 1e-05 | < 1e-05 | – | – | –
A12C G59C | 1.09e-05 ± 2.5e-06 | – | – | – | – | – | –
A12C G40U | 0.00214 ± 0.00032 | 2490 ± 550 | 4.4e-05 ± 6.1e-06 | 0.000109 ± 1.2e-05 | 0.000471 ± 5e-05 | 0.0012 ± 0.00012 | 0.00165 ± 0.00013
A12C G40C | 0.000942 ± 0.00014 | 2310 ± 620 | 3.01e-05 ± 9.1e-06 | 5.51e-05 ± 8.5e-06 | 0.0002 ± 6.3e-05 | 0.000666 ± 0.00012 | 0.000746 ± 6.8e-05
A12U C68G | 0.000191 ± 2.7e-05 | 624 ± 230 | – | 5.38e-05 ± 6.4e-06 | 8.22e-05 ± 7.3e-06 | 0.00016 ± 1.2e-05 | 0.000186 ± 1.6e-05
A12G U69C | 0.000893 ± 0.00026 | 3900 ± 1900 | – | – | 0.000152 ± 2e-05 | 0.000243 ± 5.4e-05 | 0.0007 ± 8.2e-05
A12G U69A | 0.000112 ± 2.3e-05 | – | – | – | 4.87e-05 ± 2.1e-05 | 0.000171 ± 5.2e-05 | 9.85e-05 ± 1.9e-05
A12G C70G | 0.000171 ± 1.5e-05 | 856 ± 240 | – | – | 7.9e-05 ± 1e-05 | 0.000109 ± 1.6e-05 | 0.000166 ± 1.6e-05
A12C A15U C16U C70U | 0.000185 ± 1.8e-05 | 514 ± 130 | – | 5.1e-05 ± 1.8e-05 | 9.57e-05 ± 2.2e-05 | 0.000148 ± 5e-05 | 0.000188 ± 4.7e-05
A12C U30A | 0.00751 ± 0.0021 | 7100 ± 2600 | 5.95e-05 ± 1.5e-05 | 0.000144 ± 3e-05 | 0.000745 ± 0.0002 | 0.0017 ± 0.00056 | 0.00447 ± 0.00074
A12C G37C | 8.54e-05 ± 2.4e-06 | 6970 ± 420 | – | – | – | 2.27e-05 ± 8.6e-06 | 5.03e-05 ± 7.5e-06
A12G C67A | 0.000389 ± 8.6e-05 | 2400 ± 880 | – | 4.4e-05 ± 1e-05 | 7.88e-05 ± 8.7e-06 | 0.000186 ± 2.1e-05 | 0.000343 ± 4.8e-05
